# Source: IntAct's records for PubMed 19765080
# B1: G protein-activated inward rectifier potassium channel 1 (Rattus norvegicus (Rat)), P63251 (parent)
# chain: MSALRRKFGDDYQVVTTSSSGSGLQPQGPGQGPQQQLVPKKKRQRFVDKNGRCNVQHGNLGSETSRYLSDLFTTLVDLKWRWNLFIFILTYTVAWLFMASMWWVIAYTRGDLNKAHVGNYTPCVANVYNFPSAFLFFIETEATIGYGYRYITDKCPEGIILFLFQSILGSIVDAFLIGCMFIKMSQPKKRAETLMFSEHAVISMRDGKLTLMFRVGNLRNSHMVSAQIRCKLLKSRQTPEGEFLPLDQLELDVGFSTGADQLFLVSPLTICHVIDAKSPFYDLSQRSMQTEQFEVVVILEGIVETTGMTCQARTSYTEDEVLWGHRFFPVISLEEGFFKVDYSQFHATFEVPTPPYSVKEQEEMLLMSSPLIAPAITNSKERHNSVECLDGLDDISTKLPSKLQKITGREDFPKKLLRMSSTTSEKAYSLGDLPMKLQRISSVPGNSEEKLVSKTTKMLSDPMSQSVADLPPKLQKMAGGPTRMEGNLPAKLRKMNSDRFT
# Columns and labels:
# Conditions in all cases: with kapca_bovin PRKACA
# [1] = variants of: B1
# [2] = variants of: B1; remark: listed apart in the source
# [3] = variants of: B1; remark: listed apart in the source
# [4] = variants of: B1; remark: listed apart in the source
# [5] = variants of: B1; remark: listed apart in the source
effect of a mutation on the interaction [1],effect of a mutation on the interaction [2],effect of a mutation on the interaction [3],effect of a mutation on the interaction [4],effect of a mutation on the interaction [5],Variant
disrupting interaction,decreasing interaction,,,,MSALRRKFGDDYQVVTTSSSGSGLQPQGPGQGPQQQLVPKKKRQRFVDKNGRCNVQHGNLGSETSRYLSDLFTTLVDLKWRWNLFIFILTYTVAWLFMASMWWVIAYTRGDLNKAHVGNYTPCVANVYNFPSAFLFFIETEATIGYGYRYITDKCPEGIILFLFQSILGSIVDAFLIGCMFIKMSQPKKRAETLMFSEHAVISMRDGKLTLMFRVGNLRNSHMVSAQIRCKLLKSRQTPEGEFLPLDQLELDVGFSTGADQLFLVSPLTICHVIDAKSPFYDLSQRSMQTEQFEVVVILEGIVETTGMTCQARTSYTEDEVLWGHRFFPVISLEEGFFKVDYSQFHATFEVPTPPYSVKEQEEMLLMSSPLIAPAITNSKERHNCVECLDGLDDISTKLPSKLQKITGREDFPKKLLRMSSTTSEKAYSLGDLPMKLQRISSVPGNSEEKLVSKTTKMLSDPMSQSVADLPPKLQKMAGGPTRMEGNLPAKLRKMNSDRFT [S385C]
,,decreasing interaction,disrupting interaction,,MSALRRKFGDDYQVVTTSSSGSGLQPQGPGQGPQQQLVPKKKRQRFVDKNGRCNVQHGNLGSETSRYLSDLFTTLVDLKWRWNLFIFILTYTVAWLFMASMWWVIAYTRGDLNKAHVGNYTPCVANVYNFPSAFLFFIETEATIGYGYRYITDKCPEGIILFLFQSILGSIVDAFLIGCMFIKMSQPKKRAETLMFSEHAVISMRDGKLTLMFRVGNLRNSHMVSAQIRCKLLKSRQTPEGEFLPLDQLELDVGFSTGADQLFLVSPLTICHVIDAKSPFYDLSQRSMQTEQFEVVVILEGIVETTGMTCQARTSYTEDEVLWGHRFFPVISLEEGFFKVDYSQFHATFEVPTPPYSVKEQEEMLLMSSPLIAPAITNSKERHNSVECLDGLDDISTKLPCKLQKITGREDFPKKLLRMSSTTSEKAYSLGDLPMKLQRISSVPGNSEEKLVSKTTKMLSDPMSQSVADLPPKLQKMAGGPTRMEGNLPAKLRKMNSDRFT [S401C]
,,,disrupting interaction,decreasing interaction,MSALRRKFGDDYQVVTTSSSGSGLQPQGPGQGPQQQLVPKKKRQRFVDKNGRCNVQHGNLGSETSRYLSDLFTTLVDLKWRWNLFIFILTYTVAWLFMASMWWVIAYTRGDLNKAHVGNYTPCVANVYNFPSAFLFFIETEATIGYGYRYITDKCPEGIILFLFQSILGSIVDAFLIGCMFIKMSQPKKRAETLMFSEHAVISMRDGKLTLMFRVGNLRNSHMVSAQIRCKLLKSRQTPEGEFLPLDQLELDVGFSTGADQLFLVSPLTICHVIDAKSPFYDLSQRSMQTEQFEVVVILEGIVETTGMTCQARTSYTEDEVLWGHRFFPVISLEEGFFKVDYSQFHATFEVPTPPYSVKEQEEMLLMSSPLIAPAITNSKERHNSVECLDGLDDISTKLPSKLQKICGREDFPKKLLRMSSTTSEKAYSLGDLPMKLQRISSVPGNSEEKLVSKTTKMLSDPMSQSVADLPPKLQKMAGGPTRMEGNLPAKLRKMNSDRFT [T407C]
